# How the values were obtained:
# [1] = Heat resistance: protein stability (heating, SDS-PAGE band quantification); type: physicochemical; settings: for tetramer dissociation upon addition of biotin: biotin added, after treatment at 95° C.; for heat resistance higher than that of streptavidin: difference of 50% band-intensity temperatures; for temperature which caused a 50% reduction in protein band intensity: heated 20 minutes, soluble protein, SDS-PAGE, no biotin; for heat resistance higher than in streptavidin (summary statement): summary in disclosure
# Method: (§1) 0.2 μg/μL TM2 and 0.2 μg/μL streptavidin were heated in 10 μL (2 μg) volumes at room temperature, 50° C., 60° C., 70° C., 80° C., 90° C. or 99° C. for 20 minutes, followed by centrifugation at 15000 rpm for 10 minutes. Each supernatant (soluble protein) was suspended in an equal volume of 2×SDS sample buffer (100 mM Tris-HCl pH 6.8, 12% 2-mercaptoethanol, 2% SDS, 20% glycerol), heated at 95° C. for 10 minutes and then analyzed by SDS-PAGE. Protein bands were detected by CBB staining. Using a Las-3000 system (FUJIFILM), a calibration curve was prepared based on quantification markers (LMW ELECTROPHORESIS CALIBRATION KIT; Pharmacia Biotech) and used to quantify the protein bands. The temperature which caused a 50% reduction in protein band intensity was 71° C. for streptavidin, whereas it was 87° C. for tamavidin 2.
# as §1, with “Purified tamavidin 1 at a concentration of 0.2” for “0.2”, “was” for “TM2 and 0.2 μg/μL streptavidin were”, “As a result, the” for “The”, “76°” for “71° C. for streptavidin, whereas it was 87°”, “1.” for “2.”
# [2] = Fluorescent biotin-binding activity of tamavidin 1 after heat treatment at 70° C.; settings: supernatant treated at 70° C. for 10 minutes, incubation at room temperature
# Method: Fluorescent biotin-binding activity was measured for tamavidin 1 in the above centrifuged supernatant after heat treatment at 70° C. The same procedure as used for tamavidin 2 was repeated for this purpose. Incubation with fluorescent biotin was performed at room temperature.
# [3] = test system: salmon sperm DNA; assay: Test for non-specific binding to DNA (slot blot, antibody detection); settings: 25 μg/mL protein, salmon sperm DNA 10 μg to 0.3 μg on membrane
# Method: TM2 was analyzed for its non-specific binding to DNA. Serial dilutions of salmon sperm DNA (10 μg to 0.3 μg) in 2×SSC buffer were alkali-denatured and adsorbed onto a Hybond N+ membrane (Amersham Biosciences) using Bio-Dot SF (BIO-RAD). The membrane was blocked with 5×Denhardt's solution (0.1% BSA, 0.1% Ficoll, 0, 1% polyvinylpyrrolidone) and then immersed in a 25 μg/mL TM2, streptavidin or avidin solution at room temperature for 90 minutes. The membrane was then washed three times with TTBS buffer (TBS buffer containing 0.05% Tween 20) at room temperature for 5 minutes. The membrane was blocked with TBS buffer containing 0.5% skimmed milk and 0.01% Tween 20 for 1 hour. The primary antibodies used were rabbit anti-TM2 antibody (purified as described above) for TM2, rabbit anti-streptavidin antibody (SIGMA) for streptavidin, and rabbit anti-avidin antibody (Abcam) for avidin, which were diluted to give the same antibody titer before use. Antigen-antibody reaction with each primary antibody was performed overnight at room temperature. […] The membrane was washed three times with TTBS buffer at room temperature for 5 minutes, and then developed with an Alkaline Phosphatase substrate kit II, vector Black (Funakoshi Co., Ltd., Japan), followed by quantification with a Las-3000 system (FUJIFILM).
# [4] = Kinetic analysis of tamavidin 2-biotin interaction using a Biacore 3000 biosensor (surface plasmon resonance); type: binding; settings: Biacore 3000, 25° C.
# Method: Kinetic Analysis of Tamavidin 2 (TM2)-Biotin Interaction Using a Biacore Biosensor
# Highly-purified BSA (2 mg, Sigma) and NHS-biotin (1 mg, Pierce) were dissolved in 1 ml of 50 mM sodium borate pH 8.0 and incubated at 4° C. for 2 hours. The NHS-biotin (EZ-Link NHS-LC-LC-Biotin) had been dissolved in a small volume of DMSO before addition. This solution was introduced into a dialysis tube (MWCO 6-8,000) and dialyzed overnight at 4° C. against 50 mM sodium carbonate pH 6.7. The biotin-BSA conjugate thus prepared (MW 67 kDa, 30 μM) was used as a ligand (a substance immobilized on a sensor chip) for a Biacore® biosensor. On the other hand, recombinant tamavidin 2 was prepared as an analyte (a substance flowing through channels) and analyzed for intermolecular interactions using a Biacore® 3000 (a biosensor designed on the principle of surface plasmon resonance, Biacore Inc.). Biotin-BSA and BSA alone (serving as a negative control) were each immobilized on CM5 sensor chips by amine coupling techniques. Their immobilized amount was adjusted to around 200 RU. BSA-immobilized chips were placed in flow cells 1 and 3, while biotin-BSA-immobilized chips were placed in flow cells 2 and 4. Tamavidin 2 was loaded into flow cells 1 and 2, while streptavidin was loaded into flow cells 3 and 4, each being loaded at a flow rate of 20 μl/min for 2 minutes in running buffer [10 mM HEPES pH 7.4, 150 mM NaCl, 3 mM EDTA, 0.005% Surfactant 20 (Biacore Inc.)]. The samples were then monitored for their dissociation over 60 minutes. […] The dissociation constant (Kd) was determined from kd/ka.
# It should be noted that when the regeneration step was skipped, Rmax (the maximum binding amount of an analyte) was reduced ever time the measurement at each concentration was made. For this reason, Rmax was calculated by local fitting for each concentration during analysis. […]
# [5] = Activity measurement by means of fluorescent biotin (method of Kada et al.); type: binding; settings: room temperature
# Method: By means of fluorescent biotin, tamavidin 2 was measured for its biotin-binding activity according to the method of Kada et al. (Biochim. Biophys. Acta., 1427: 44-48, (1999)). Solutions were prepared to contain the purified TM2 at stepwise concentrations from 0 pmol to 486 pmol in 200 μl assay buffer (50 mM NaH2PO4, 100 mM NaCl, 1 mM EDTA (pH 7.5)). These solutions were each mixed with 50 μL (1 nmol) of a 20 pmol/μL fluorescent biotin solution (biotin-4-fluorescein; Molecular Probe) and allowed to stand at room temperature for 10 minutes, followed by measuring the fluorescence intensity with a Las-3000 system (FUJIFILM). As a result, 0.274 nmol of TM2 was bound to nmol of fluorescent biotin. Namely, 3.6 mol of fluorescent biotin was bound to 1 mol of tamavidin. […] In the case of streptavidin, 3.4 mol of fluorescent biotin was bound per mol of streptavidin.
# [6] = Heat resistance: fluorescent biotin-binding activity of heated biotin-binding proteins
# Method: Based on the property of fluorescent biotin to lose its fluorescence intensity when bound to a biotin-binding site in a biotin-binding protein, tamavidin 2 was compared with streptavidin and avidin for biotin-binding capacity under high temperature conditions.
# About 0.25 μg/μL TM2 and streptavidin were heated at room temperature, 50° C., 60° C., 70° C., 80° C. or 90° C. for 20 minutes. Solutions were prepared to contain the heat-treated TM2 or streptavidin at stepwise concentrations from 0 μL to 27 μL in 150 μL assay buffer (50 mM NaH2PO4, 100 mM NaCl, 1 mM EDTA (pH 7.5)). These solutions were each mixed with 50 μL (250 pmol) of a 5 pmol/μL fluorescent biotin solution (biotin-4-fluorescein; Molecular Probe) and allowed to stand at room temperature for 20 minutes, followed by measuring the fluorescence intensity with a Las-3000 system (FUJIFILM).
# Heat resistance test on the biotin-binding proteins was accomplished as follows. About 0.25 μg/μL biotin-binding protein was heated at room temperature, 50° C., 60° C., 70° C., 80° C. or 90° C. for 20 minutes. Solutions were prepared to contain the heated biotin-binding protein at stepwise concentrations from 0 μL to 12 μL in 150 μL assay buffer. These solutions were each mixed with 50 μL (100 pmol) of a 2 pmol/μL fluorescent biotin solution and allowed to stand at room temperature for 20 minutes, followed by measuring the fluorescence intensity at Ex=460 nm and Em=525 nm with an Infinite M200 (TECAN).
# [7] = 1:1 binding model, biotin-BSA ligand
binding to fluorescent biotin after heat treatment [2],"Dissociation rate constant kd [4, 7]","Kd ([4]; determined from kd/ka, read-out: Dissociation constant Kd)","change in binding to fluorescent biotin compared to the room temperature value ([6]; heated at 70° C. or below, 20 minutes)","retained fluorescent biotin-binding activity ([6]; heated at 80° C., 20 minutes)",Molecule,tetramer dissociation upon addition of biotin [1],heat resistance higher than that of streptavidin [1],temperature which caused a 50% reduction in protein band intensity [1],heat resistance higher than in streptavidin (summary statement) [1],non-specific binding to DNA (staining intensity versus DNA concentration) [3],"Association rate constant ks [4, 7]",amount of TM2 bound to nmol of fluorescent biotin ([5]; 1 nmol fluorescent biotin added),fluorescent biotin bound per mol of protein ([5]; 10 minutes),"temperature which caused a 50% reduction in fluorescence intensity decrement compared to the unheated sample ([6]; free protein, heated 20 minutes)"
found to bind to fluorescent biotin,,,,,"Tamavidin 1: biotin-binding protein (SEQ ID NO: 2) purified from the edible mushroom Pleurotus cornucopiae var. citrinopileatus; recombinant from E. coli (protein, listed as Pleurotus cornucopiae) MKDVQSLLTGTWYNELGSTMNLTANKDGSLTGTYHSNVGEVPPTYHLSGRYNLQPPSGQGVTLGWAVSFENTSANVHSVSTWSGQYFSEPAEVILTQWLLSRSSEREDLWQSTHVGHDEFSKTKPTKEKIAQAQLLRRGLKFE",tetramer dissociation was not observed,5 °C,76 °C,5 °C,,,,,
,6.83e-06 s⁻¹,7.43 pM,no change,82%,"Tamavidin 2: biotin-binding protein (SEQ ID NO: 4) from Pleurotus cornucopiae var. citrinopileatus, recombinant from E. coli, tetramer (protein, listed as Pleurotus cornucopiae, tetramer) MSDVQSSLTGTWYNELNSKMELTANKDGTLTGKYLSKVGDVYVPYPLSGRYNLQPPAGQGVALGWAVSWENSKIHSATTWSGQFFSESSPVILTQWLLSSSTARGDVWESTLVGNDSFTKTAPTEQQIAHAQLHCRAPRLK",tetramer dissociation was not observed,≥ 15 °C,87 °C,≥ 10 °C,not strongly affected by DNA concentration,919000 M⁻¹ s⁻¹,0.274 nmol,3.6 mol,85 °C

# From patent publication US8957190B2, “Use of heat-resistant biotin-binding protein, and solid support having the protein attached thereto” (Japan Tobacco Inc., priority 2006, dated 2015)
